From patent US20190352644A1, “INHIBITION OF MITOCHONDRIAL HYPOXIC STRESS INDUCED RNA EDITING BY APOBEC3G CYTIDINE DEAMINASE” (Health Research, Inc., priority 2015, published 2019)

What was measured:
NK cells = assay: TM7SF3 C>U RNA editing in NK cells; type: cell-based, human; conditions: cellular crowding with hypoxia, IFN-γ 50 ng/ml
Description: The HuT78, JVM3 and NK-92 cell-lines were obtained from ATCC. Hut 78 cells were cultured in IMDM (ATCC) containing 20% Fetal Bovine serum (FBS) (Sigma-Aldrich), JVM3 cells were cultured in RPMI (ATCC) containing 10% FBS and NK-92 cells were cultured in Alpha Minimum Essential medium without ribonucleosides and deoxyribonucleosides (Life Technologies) but with 2 mM L-glutamine and 1.5 g/L sodium bicarbonate as well as 0.2 mM inositol, 0.1 mM 2-mercaptoethanol, 0.02 mM folic acid, 500 U/ml IL-2 (Aldesleukin—a kind gift from Novartis), 12.5% horse serum (ATCC) and 12.5% FBS. […]
Total RNA was isolated and reverse transcribed to generate cDNAs. […] To quantify RNA editing level, the major and minor chromatogram peak heights at putative edited nucleotides were quantified with Sequencher 5.0/5.1 software (Gene Codes, MI). […] For quantitative PCR to assess APOBEC3G and APOBEC3F gene expression, reactions using LightCycler™ 480 Probes Master and SYBR™ Green I dye were performed on a LightCycler™ 480 System (Roche). Quantification cycle (Cq) values were calculated by the instrument software using the maximum second derivative method, and the mean Cq value of duplicate PCR reactions was used for analysis.

[1] = system: monocyte enriched peripheral blood mononuclear cells (MEPs); assay: SDHB c.136C>U RNA editing in interferon-treated MEPs (RT-PCR); type: cell-based, human; conditions: normoxic or hypoxic MEPs, 24 hours; IFN1 600 U per ml, IFNγ 200 U per ml; vs untreated
From the text: The TLA-HEK293T™ 293T human embryonic kidney cell-line was obtained from Open Biosystems® (Huntsville, Ala.). Peripheral blood mononuclear cells of anonymous platelet donors were isolated from peripheral blood in Trima Accel™ leukoreduction system chambers (Terumo BCT®, Lakewood, Colo.) after thrombocytapheresis, in accordance with a protocol approved by the institutional review board of Roswell Park Cancer Institute. A density gradient centrifugation method using polysucrose-containing Lymphocyte Separation Medium (Mediatech®, Manassas, Va.) was used for PBMC isolation. […]
For hypoxia, cells were cultured under 1% O2, 5% CO2 and 94% N2 in an Xvivo™ System (Biospherix®, Lacona, N.Y.). […] Differential viability of MEPs after 1-day culture in normoxia versus hypoxia was not observed as evaluated by Trypan blue stain. […]
SDHB gene expression and c.136C>U RNA editing was quantified by RT-PCR. […]

B1: IFNγ: Human IFNγ (PBL Assay Science; PeproTech in Example 3) (protein, UniProt P01579 24-161, looked up)
Interferon gamma: QDPYVKEAENLKKYFNAGHSDVADNGTLFLGILKNWKEESDRKIMQSQIVSFYFKLFKNFKDDQSIQKSVETIKEDMNVKFFNSNKKKRDDFEKLTNYSVTDLNVQRKAIHELIQVMAELSPAAKTGKRKRSQMLFRG
RNA editing in TM7SF3 (NK cells): did not further increase
increase of SDHB c.136C>U RNA editing level [1]: ~3 fold
